According to article PMC10117073:

How the values were obtained:
[1] = target: mature Geh (mGeh) (S. aureus); assay: SEC; analytical gel filtration column (HiLoad 13/300 Super 200); molecular weight estimated from a standard curve (thyroglobulin, ferritin, aldolase, conalbumin, ovalbumin, RNase A, aprotinin)
[2] = target: proGeh (glycerol ester hydrolase, pro form) (S. aureus); assay: as above

Substance | stoichiometry N [1] | stoichiometry N [2]
mature Geh (mGeh) (enzyme) | 2 | –
proGeh (glycerol ester hydrolase, pro form) (from UniProt A0A1R3UHM3 38-645) (enzyme) | – | 2
